# Measurements published in article PMC9032829.
# “And” between values parts separate entries of the source, which are not always exact repeats. Identical values can stand only once.
# Molecular target: entire receptor binding domain (RBD) of SARS-CoV-2 Spike protein (SARS-CoV-2) (UniProt P0DTC2)
# Assay: SPR
substance,measurement,value
soluble αvβ3 integrin (from UniProt P06756;P05106) (complex),Kd,6.3 nM and 59.3 nM
